Source: publication PMC7350215, “Features of the Human Antibody Response against the Respiratory Syncytial Virus Surface Glycoprotein G” (Vaccines, 2020)

Biological target: the molecule itself
Assay: non-reducing SDS-PAGE with immunoblot; purified A2-G separated under non-reducing or reducing conditions, blot stained with anti-His antibodies

B1: Recombinant RSV A2-derived G protein (extracellular domain of the attachment glycoprotein G, amino acids 66 to 298) (domain or fragment)
chain: NHKVTPTTAIIQDATSQIKNTTPTYLTQNPQLGISPSNPSEITSQITTILASTTPGVKSTLQSTTVKTKNTTTTQTQPSKPTTKQRQNKPPSKPNNDFHFEVFNFVPCSICSNNPTCWAICKRIPNKKPGKKTTTKPTKKPTLKTTKKDPKPQTTKSKEVPTTKPTEEPTINTTKTNIITTLLTSNTTGNPELTSQMETFHSTSSEGNPSPSQVSTTSEYPSQPSSPPNTPRQ
notes: Attachment glycoprotein G of respiratory syncytial virus strain A2, UniProtKB/Swiss-Prot P03423.1, extracellular domain, amino acids 66 to 298 (N66 to Q298); also called A2-G; recombinant His-tagged A2-G; not shown: His6, C-terminal, kept
binding result: binds
